In publication PMC6469932 (Biochemistry, 2018):

B1: SmGhrA, glyoxylate/hydroxypyruvate reductase of subfamily GHRA from Sinorhizobium meliloti 1021 (enzyme, UniProt Q92T34 1-319, looked up)
chain: MPAKSPVIVDLKFIPEEVEAALAGAFPGREVIDLADPAHQERDLSGIDYAVVWKSAPDLFSRAPDLKVVFSGGAGVDHVLTLPGLPDVPLVRFVDRTLTTRMSEWVMMQCLLHLRQHRAYEALAKKHEWRDLSQPEAADVTVGIMGMGVLGQDAARKLAAMGFKVIGWSRSKRVIEGVETYDAAGLDAFLGRTDFLVGLLPLTPDTRGIFNAALFAKLSRNGPFGAPVFINAGRGGSQVEADILECLDSGVLGGASLDVFEREPLSPESRFWDMPNVYVTPHVAASSDVRALFVHVEHQIARFESGLPLEHVVDKVAGY
B2: SmGhrB, glyoxylate/hydroxypyruvate reductase of subfamily GHRB from Sinorhizobium meliloti 1021 (enzyme, UniProt Q92LZ4 1-322, looked up)
chain: MSRPRILVPGKINPRVLERLPEMFETVRIERADAALVTADMRDVSGIAVSGKLPVPLMDAFPSLEIVANFGVGYDGVDVSRAAARGIVVTNTPDVLTEEVADTAIGLLLNTLRLLPQAEQWLRQGRWVREGAFPLSPLSLRGRTVGLFGLGRIGLAIARRLEAFGVSIAYHTRTPREGLGFTYHPTLVGMAEAVDTLIVIVPGTASTLKAVNADVLSALGPKGVLINVGRGSTVDEAALVTALQNGTIAGAGLDVFENEPNVPEALLSFPNVSLLPHVASASVVTRNAMSDLVVDNLKAWFSTGEALTPVAETPFRRRAIQN

What was measured:
[1] = target: the molecule itself; assay: crystal structure
[2] = substrate: O=C(O)C(=O)Cc1ccccc1; assay: purified protein; type: biochemical, Sinorhizobium meliloti; conditions: 0.4 mM NADPH, 150 mM NaCl, 150 mM Tris-HCl pH 7.5, 25 °C
[3] = substrate: CC(=O)C(=O)O; assay: purified protein; type: biochemical, Sinorhizobium meliloti; conditions: 0.4 mM NADPH, 150 mM NaCl, 150 mM Tris-HCl pH 7.5, 25 °C
[4] = substrate: O=C(O)C(=O)CO; assay: purified protein; type: biochemical, Sinorhizobium meliloti; conditions: 0.4 mM NADPH, 150 mM NaCl, 150 mM Tris-HCl pH 7.5, 25 °C
[5] = substrate: O=C(O)C(=O)[C@@H](O)[C@H](O)[C@H](O)CO; assay: purified protein; type: biochemical, Sinorhizobium meliloti; conditions: 0.4 mM NADPH, 150 mM NaCl, 150 mM Tris-HCl pH 7.5, 25 °C

Protein	stoichiometry N [1]	K0.5 [2]	kcat/Km [2]	K0.5 [3]	kcat/Km [3]	K0.5 [4]	kcat/Km [4]	K0.5 [5]	kcat/Km [5]
B1	2	6.58 ± 0.73 mM	267 ± 18 M⁻¹ s⁻¹	9.69 ± 0.80 mM	57.3 ± 3.4 M⁻¹ s⁻¹	9.35 ± 0.86 mM	1200 ± 61 M⁻¹ s⁻¹		
B2	2	5.59 ± 0.92 mM	372 ± 38 M⁻¹ s⁻¹					11.0 ± 2.0 mM	935 ± 84 M⁻¹ s⁻¹
